Data as given in doi:10.1101/2022.10.27.514150.

Biological target: Gluc1-ΔN(1–433)
Experiment: split reporter

Gluc2-E2F4 FL, sequence (Q16254 whole entry): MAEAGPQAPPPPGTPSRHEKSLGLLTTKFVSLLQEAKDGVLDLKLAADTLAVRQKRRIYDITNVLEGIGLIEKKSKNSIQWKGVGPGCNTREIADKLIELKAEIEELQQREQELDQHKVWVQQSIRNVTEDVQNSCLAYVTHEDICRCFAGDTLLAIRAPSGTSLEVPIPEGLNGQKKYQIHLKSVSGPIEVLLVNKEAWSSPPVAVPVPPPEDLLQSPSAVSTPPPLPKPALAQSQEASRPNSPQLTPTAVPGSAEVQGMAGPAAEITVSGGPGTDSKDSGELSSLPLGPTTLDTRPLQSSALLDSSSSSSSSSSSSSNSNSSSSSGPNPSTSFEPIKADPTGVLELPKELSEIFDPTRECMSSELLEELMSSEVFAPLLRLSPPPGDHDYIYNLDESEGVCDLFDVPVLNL

normalized luminescence ratio (NLR): > 20
Substance: Gluc2-E2F4 FL (from UniProt Q16254 1-413) (natural protein)
